Laboratory results from PMC6403371.

Legend:
cHSP27 C137S (human) [1] = biological target: cHSP27 C137S (human) (UniProt P04792); test: high-pressure NMR (1H-15N HSQC); 200 μM [U-15N]-C137S in baroresistant buffer (100 mM Tris-HCl, 100 mM phosphate) pH 7, 25 °C, 14.1 T, 1 to 2500 bar; three-state model (dimer, monomer, unfolded); similar pressure titrations on oxidised cHSP27
cHSP27 C137S (human) [2] = biological target: cHSP27 C137S (human) (UniProt P04792); test: NMR (1H-15N HSQC, G116 monomer and dimer peak intensities) against pH; [U-15N]-C137S at 250 μM in NMR buffer at pH 7, 25 °C, and separate samples at pH 6.5, 6.0 and 5.0, 1 bar; similar pH titrations on oxidised cHSP27; the rows are for pH 5 / low pH; dimer to monomers
cHSP27 C137S (human) [3] = biological target: cHSP27 C137S (human) (UniProt P04792); test: NMR titration; intensities of the G116 monomer and dimer resonances against protein concentration, pH 7, 1 bar; dimer to monomers
cHSP27 C137S (human) [4] = biological target: cHSP27 C137S (human) (UniProt P04792); test: 15N CPMG relaxation dispersion NMR; cHSP27 (1 mM, reduced with 5 mM BME, 14.1 T only) or C137S (1 mM and 0.3 mM; 25, 30, 35 °C; 11.7 and 14.1 T) in NMR buffer pH 7; global two-state fit; dimer to monomers
[5] = biological target: cHSP27(H124K/C137S) (human) (UniProt P04792); test: NMR titration; intensities of the G116 monomer and dimer resonances against protein concentration, pH 7, 1 bar; dimer to monomers

| Substance | fold increase of Kd at 1600 bar (against 1 bar) (cHSP27 C137S (human) [1]) [fold] | Kd (cHSP27 C137S (human) [2]) [µM] | Kd (cHSP27 C137S (human) [3]) [µM] | Kd (cHSP27 C137S (human) [4]) [µM] | population of the monomer at 1 mM (cHSP27 C137S (human) [4]) [%] | Kd [5] [µM] |
| --- | --- | --- | --- | --- | --- | --- |
| cHSP27 C137S (from UniProt P04792 84-171) (domain or fragment) | 10 | 5000 | 0.7 | 0.5 | 1.5 |  |
| cHSP27(H124K/C137S) (from UniProt P04792 84-171) (domain or fragment) |  |  |  |  |  | 1100 |
